In publication PMC5751438 (Cell, 2017):

T1: SBP-tagged Ufd1/Npl4 heterodimer (SBP tag on Ufd1) (S. cerevisiae, UniProt P53044 1-361; P33755 1-580)
T1 sequence (looked up) 1: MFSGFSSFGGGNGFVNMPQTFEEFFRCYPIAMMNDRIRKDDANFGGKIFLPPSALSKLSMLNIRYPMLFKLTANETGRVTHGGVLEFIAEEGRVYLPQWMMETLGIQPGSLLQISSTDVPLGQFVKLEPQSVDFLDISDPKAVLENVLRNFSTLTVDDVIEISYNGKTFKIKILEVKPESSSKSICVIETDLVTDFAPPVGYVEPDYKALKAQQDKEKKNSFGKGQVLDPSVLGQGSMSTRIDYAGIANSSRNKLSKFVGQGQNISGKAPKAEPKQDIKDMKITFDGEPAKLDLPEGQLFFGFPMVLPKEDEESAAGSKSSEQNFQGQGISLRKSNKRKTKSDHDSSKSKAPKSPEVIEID
T1 sequence (looked up) 2: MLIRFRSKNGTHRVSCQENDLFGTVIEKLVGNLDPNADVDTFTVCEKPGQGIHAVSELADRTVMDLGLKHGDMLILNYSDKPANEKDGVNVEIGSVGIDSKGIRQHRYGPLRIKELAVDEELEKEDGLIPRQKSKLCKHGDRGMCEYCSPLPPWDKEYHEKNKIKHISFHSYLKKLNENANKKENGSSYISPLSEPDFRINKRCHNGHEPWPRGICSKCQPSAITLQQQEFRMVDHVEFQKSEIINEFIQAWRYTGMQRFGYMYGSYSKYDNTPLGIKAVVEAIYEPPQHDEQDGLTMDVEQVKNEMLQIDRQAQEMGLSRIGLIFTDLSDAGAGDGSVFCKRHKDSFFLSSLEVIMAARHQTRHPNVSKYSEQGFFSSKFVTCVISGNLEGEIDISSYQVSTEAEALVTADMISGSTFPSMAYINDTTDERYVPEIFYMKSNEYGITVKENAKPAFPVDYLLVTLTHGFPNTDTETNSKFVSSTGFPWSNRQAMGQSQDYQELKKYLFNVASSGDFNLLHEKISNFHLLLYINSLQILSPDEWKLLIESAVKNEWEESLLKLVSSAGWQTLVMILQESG

B1: Otu1 (wild type) (enzyme, UniProt P43558 1-301, looked up)
chain: MKLKVTGAGINQVVTLKQDATLNDLIEHINVDVKTMRFGYPPQRINLQGEDASLGQTQLDELGINSGEKITIESSDSNESFSLPPPQPKPKRVLKSTEMSIGGSGENVLSVHPVLDDNSCLFHAIAYGIFKQDSVRDLREMVSKEVLNNPVKFNDAILDKPNKDYAQWILKMESWGGAIEIGIISDALAVAIYVVDIDAVKIEKFNEDKFDNYILILFNGIHYDSLTMNEFKTVFNKNQPESDDVLTAALQLASNLKQTGYSFNTHKAQIKCNTCQMTFVGEREVARHAESTGHVDFGQNR
B2: Cdc48 ATPase (wild type, untagged) (enzyme, S. cerevisiae, UniProt P25694 1-835, looked up)
chain: MGEEHKPLLDASGVDPREEDKTATAILRRKKKDNMLLVDDAINDDNSVIAINSNTMDKLELFRGDTVLVKGKKRKDTVLIVLIDDELEDGACRINRVVRNNLRIRLGDLVTIHPCPDIKYATRISVLPIADTIEGITGNLFDVFLKPYFVEAYRPVRKGDHFVVRGGMRQVEFKVVDVEPEEYAVVAQDTIIHWEGEPINREDEENNMNEVGYDDIGGCRKQMAQIREMVELPLRHPQLFKAIGIKPPRGVLMYGPPGTGKTLMARAVANETGAFFFLINGPEVMSKMAGESESNLRKAFEEAEKNAPAIIFIDEIDSIAPKRDKTNGEVERRVVSQLLTLMDGMKARSNVVVIAATNRPNSIDPALRRFGRFDREVDIGIPDATGRLEVLRIHTKNMKLADDVDLEALAAETHGYVGADIASLCSEAAMQQIREKMDLIDLDEDEIDAEVLDSLGVTMDNFRFALGNSNPSALRETVVESVNVTWDDVGGLDEIKEELKETVEYPVLHPDQYTKFGLSPSKGVLFYGPPGTGKTLLAKAVATEVSANFISVKGPELLSMWYGESESNIRDIFDKARAAAPTVVFLDELDSIAKARGGSLGDAGGASDRVVNQLLTEMDGMNAKKNVFVIGATNRPDQIDPAILRPGRLDQLIYVPLPDENARLSILNAQLRKTPLEPGLELTAIAKATQGFSGADLLYIVQRAAKYAIKDSIEAHRQHEAEKEVKVEGEDVEMTDEGAKAEQEPEVDPVPYITKEHFAEAMKTAKRSVSDAELRRYEAYSQQMKASRGQFSNFNFNDAPLGTTATDNANSNNSAPSGAGAAFGSNAEEDDDLYS

Assays:
[1] = target: B2; experiment: pull-down
[2] = target: T1, SBP-tagged Ufd1/Npl4 heterodimer (SBP …); experiment: pull-down

binding result [1]	binding result [2]	Binder
binds	–	B1
–	binds	B2
